The record followed here is patent EP4667489A1.

This assay concerns the target human PDL1 expressed on 293T-PDL1 cells (human) (UniProt Q9NZQ7). The experiment in a line: flow cytometry on 293T-PDL1 cells. Background: In flow cytometry, cells or beads pass a laser one at a time.

Sequence of human PDL1 expressed on 293T-PDL1 cells (human) (Q9NZQ7 19-290): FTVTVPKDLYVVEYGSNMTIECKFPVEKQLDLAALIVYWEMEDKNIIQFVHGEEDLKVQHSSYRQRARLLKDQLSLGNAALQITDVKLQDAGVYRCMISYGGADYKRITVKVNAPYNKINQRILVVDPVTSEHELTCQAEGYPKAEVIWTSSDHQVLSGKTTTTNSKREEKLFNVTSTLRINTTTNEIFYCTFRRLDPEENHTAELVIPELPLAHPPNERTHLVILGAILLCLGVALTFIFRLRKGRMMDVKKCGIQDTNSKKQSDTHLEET

IgG1 irrelevant antibody registered an MFI.Max of 44.1.
